Patent publication US12710427B2, “Anti-human neurotensin receptor 1 antibody and use thereof” (National Health Research Institutes, priority 2020, dated 2026)

Tests used:
NTSR1 on A549 cells = biological target: T1, NTSR1 on A549 cells (Homo sapiens, UniProt P30989); experiment: Flow cytometry (FACS) binding of anti-NTSR1 antibodies on A549 cells
T1 construct: endogenous in cells; host or cells: A549 (NSCLC)
Experimental: A total of 1×10^6 cells were reacted with an anti-NTSR1 antibody in 100 μL of FACS buffer (PBS containing 0.5% BSA) for 60 minutes at 4° C. and washed two times to remove excess antibody. Secondary FITC (BD Pharmingen™) conjugated mouse anti-human IgG antibodies were incubated for an additional 60 minutes on ice. Cells were washed again and followed by an additional incubation with 1 ml PBS containing 0.5 mg/mL propidium iodide at 4° C. for 10 minutes. Data were collected on 10,000 living cells by FACS (Bio-Red S3e cell sorter). Fluorescence intensity from channel FL-1 was calculated with Flow Jo flow […] cytometry analysis software.

NTSR1 ECL2 peptide [1] = biological target: T2, NTSR1 ECL2 peptide (Homo sapiens, UniProt P30989); experiment: Surface plasmon resonance with immobilized ECL2 peptide; conditions: SPR, 1:1 binding model
Experimental: The interaction of NTSR1-specific mAbs with extracellular loop 2 (ECL2) peptides of NTSR1 was measured by surface plasmon resonance using an Open SPR (Nicoya, Canada) instrument. Biotin-conjugated ECL2 peptides were immobilized on a streptavidin-coated sensor chip by injecting the peptides diluted in HBS-EP5 buffer saline (20 mM HEPES, 250 mM NaCl, 3 mM EDTA, 0.05% Tween 20 and 0.5% BSA, pH 7.4) at a concentration of 10 μg/ml at a flow rate of 30 μl/min. For kinetic experiments, NTSR1-specific mAbs diluted in HBS-EP5 at concentrations ranging from 24 to 1.5 nM were injected at a flow rate of 30 μl/min over the immobilized ECL2 peptides. Binding of the NTSR1-specific mAbs at different concentrations to the immobilized ECL2 peptides were analyzed using the TraceDrawer software (Nicoya, Canada). Association rate (ka), dissociation rate (kd), and affinity (KD) were calculated using global analysis, fitting the data to a simple 1:1 binding model.
Target sequence in this assay (P30989 206-234 limits assumed): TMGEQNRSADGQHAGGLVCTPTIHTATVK

[2] = test system: cyclic ECL2 peptide of NTSR1; experiment: NTSR1-binding affinity ELISA (alanine scanning variants); set-up: species or system human; conditions: h7C3-2 variants
Experimental: The NTSR1-binding capacity of different antibodies were measured by ELISA. Briefly, NeutrAvidin 96-well plates (Pierce Cat:15128) were coated with cyL2-Biotin peptides at a final concentration of 5 μg/ml at […]. On the following day, the coating solution was removed, and the plates were blocked with 5% (v/v) non-fat dry milk in phosphate buffer saline (PBS) for 1 hour. After washing with PBST, gradient concentrations of anti-NTSR1 antibodies were added in triplicate. After 1 hour of incubation, the plate was washed three times with PBST, followed by the addition of horseradish peroxidase (HRP)-conjugated goat anti-human IgG Fc antibody (100 μL) into each well for an additional hour at RT. Finally, 100 μL of tetramethylbenzidine (TMB) substrate was added into each well to produce color for visualization. After 2 minutes of incubation, 100 μL of 2M H2SO4 was used to stop the reaction. The absorbance of each well was read at 450 nm with a plate reader. Flow cytometry

A549 = experiment: In vitro cell cytotoxicity assay (CellTiter-Glo); type: cell-based
Experimental: (§1) The number of living cells were determined using the CellTiter-Glo® Luminescent Cell Viability Assay (Promega G7571). Cells were plated in 96-well opaque Costar plates (Cat number 136101). In brief, 500-2500 cells in 90 μL media were added to each well in quadruplicate and allowed to adhere for 16 hours. Anti-NTSR1 (dose range: 0-500 nM), anti-NTSR1-MMAE (dose range: 0-500 nM) or Paclitaxel (dose range: 0-100 nM) were added in […] 72-120 hours, medium was removed, and 200 μL of CellTiter-Glo® viability reagent contain culture medium (1:1) was added to each well and placed on an orbital shaker in the dark for 2 minutes. The plate was allowed to sit at RT for 10 minutes before being read on a GloMax® Explorer Multimode Microplate Reader (GM3500).

H1299 = experiment: In vitro cell cytotoxicity assay (CellTiter-Glo); type: cell-based
Experimental: as §1

HA22T-Luc = experiment: In vitro cell cytotoxicity assay (CellTiter-Glo); type: cell-based
Experimental: as §1

HA22T = experiment: In vitro cell cytotoxicity assay (CellTiter-Glo); type: cell-based
Experimental: as §1

Mahlavu = experiment: In vitro cell cytotoxicity assay (CellTiter-Glo); type: cell-based
Experimental: as §1

PC-3 = experiment: In vitro cell cytotoxicity assay (CellTiter-Glo); type: cell-based
Experimental: as §1

A549 cells = experiment: Internalization of NTSR-1 antibody (flow cytometry); type: cell-based; conditions: A549, 10 μg/ml
Experimental: NTSR-1 antibody was used for flow cytometry analysis to compare the NTSR1 expression level in different lung and HCC cell lines, including A549, H1299, HA22T and Mahlavu. A total of 1×10^6 cells were reacted with the h7C3-3 antibody in FACS buffer for 60 minutes at 4° C. and washed two times to remove excess antibody. Cells were then transferred to 4° C. or 37° C. for 0, 0.5, 2, 5, 24 hours and followed by an additional incubation with secondary anti-human IgG Fc-PE (BioLegend) antibody for 60 minutes at 4° C. Cells were washed again, and data were collected by BD LSRFortessa. Fluorescence intensity from channel FL-1 was calculated with Flow Jo flow cytometry analysis software.

[3] = test system: NTSR1-expressing A549 cancer cells; experiment: Internalization of h7C3-3 or h7C3-3-ADC in A549 cells (flow cytometry); type: cell-based; conditions: A549, 1 μg/ml, 37° C. for 90 minutes
Experimental: A total of 1×10^6 cells were reacted with the indicated antibody or ADC in 100 μL of FACS buffer for 60 minutes at 4° C. and washed to remove excess antibody or ADC. Cells were then transferred to 4° C. or 37° C. for 90 minutes. To determine the relative number of h7C3-3 or h7C3-3-ADC on the cell surface, cells were stained with saturating amounts of FITC (BD Pharmingen™) conjugated mouse anti-human IgG antibodies and incubated for additional 60 minutes on ice. Cells were washed again and followed by an additional incubation with 1 ml PBS containing 0.5 mg/mL propidium iodide at 4° C. for 10 minutes. Data were collected on 10,000 living cells by FACS (Bio-Red S3e cell sorter). Fluorescence intensity from channel FL-1 was calculated with Flow Jo flow cytometry analysis software. Preparation of anti-NTSR1 antibody-drug conjugates (ADCs)

NTSR1 = biological target: T3, NTSR1 (Homo sapiens, UniProt P30989); experiment: Immunohistochemistry staining of PC-3 xenograft tumor tissue; conditions: 2 μg/ml antibody
T3 construct: Solid tumors were excised from PC-3 xenograft mice without treatment, followed by immunohistochemistry staining using antibodies specific for NTSR1; from tissue; host or cells: PC-3 prostate cancer xenograft tumour grown in mice
T3 sequence (P30989 whole entry): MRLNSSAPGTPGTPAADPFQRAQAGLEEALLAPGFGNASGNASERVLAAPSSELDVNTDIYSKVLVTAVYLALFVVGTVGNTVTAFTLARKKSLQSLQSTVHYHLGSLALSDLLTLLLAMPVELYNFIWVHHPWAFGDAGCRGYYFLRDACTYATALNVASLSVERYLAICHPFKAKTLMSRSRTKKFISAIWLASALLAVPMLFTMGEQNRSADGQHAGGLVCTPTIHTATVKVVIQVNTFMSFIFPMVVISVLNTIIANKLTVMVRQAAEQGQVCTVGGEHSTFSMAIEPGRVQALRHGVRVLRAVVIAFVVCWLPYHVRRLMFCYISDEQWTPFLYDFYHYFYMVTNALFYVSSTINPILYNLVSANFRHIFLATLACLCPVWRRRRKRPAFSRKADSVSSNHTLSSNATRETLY
Experimental: Deparaffinized tissue sections (4 μm) were subjected to heat-induced epitope retrieval in Tris-EDTA buffer (pH 9) at 95° C. for 30 minutes. The sections were blocked with inhibitor CM at 37° C. for 4 minutes. The slides were incubated with primary antibody including 2 μg/ml anti-NTSR1-B12 (SC-376958, Santa Cruz Biotechnology) and different […] antibody clones (7C3, h7C3-2 and h7C3-3) for 1 hour. The slides were then incubated with appropriate secondary antibodies; OmniMap anti-mouse-HRP for anti-NTSR1-B12 and anti-human-HRP for 7C3, h7C3-2 and h7C3-3 at RT for 30 minutes. The staining was performed with diamino-benzidine tetrahydrochloride.

NTSR1 ECL2 peptide [4] = biological target: T2, NTSR1 ECL2 peptide; experiment: Kon (M^-1s^-1)
Experimental: (§2) Table printed on a drawing sheet, FIG. 2
Head of the field: Kon (M^-1s^-1)
(§3) The patent's description of the figure: FIG. 2 is a graph showing affinity and kinetics data of h7C3-3. The binding affinity between h7C3-3 and NTSR1 ECL2 peptide was determined by surface plasmon resonance (SPR).
(§4) First copying reader's note: Table stands under the sensorgram plot headed h7C3-3 inside the same frame.
(§5) Where the first naming reader finds the target: description_of_the_figure: The binding affinity between h7C3-3 and NTSR1 ECL2 peptide was determined by surface plasmon resonance (SPR).

NTSR1 ECL2 peptide [5] = biological target: T2, NTSR1 ECL2 peptide; experiment: Koff (s^-1)
Experimental: as §2
Head of the field: Koff (s^-1)
as §3, §4, §5

T1 sequence (P30989 whole entry): as above

B1: h7C3-3: 7C3 variant bearing T28A in CDR H1, Y100H in CDR H3 and S97A in CDR L3 (antibody, V domains shown)
VH: QVQLQQPGSVLVRPGASVKLSCKASGYAFTSSWIHWAKQRPGQGLEWIGQIRPNSGNTYYNEKFKVKATLTVDTSSSTAYVDLSSLTSEDSAVYYCARYHYGFDYWGQGTLVTVSS
VL: DVLMTQTPLSLPVSLGDQASISCRSSQSIVHSNGNTYLEWYLQKPGQSPKLLIYKVSNRFSGVPDRFSGSGSGTDFTLKISRVEAEDLGVYYCFQGAHLPWTFGGGTKLEIKR
FACS binding (%, 1 μg/ml) (NTSR1 on A549 cells; A549 cells, antibody 1 μg/ml): 98.7%
FACS binding (%, 10 μg/ml) (NTSR1 on A549 cells; A549 cells, antibody 10 μg/ml): 100%
binding on cell surface (NTSR1 on A549 cells; A549 cells, one hour incubation at 4° C.): have binding efficiency on cell surface
affinity for NTSR1 on A549 cells compared with h7C3-2 (NTSR1 on A549 cells; FACS, h7C3-2 variant): higher affinity
EC50 (NTSR1 on A549 cells; relative mean fluorescence intensity (MFI) on A549 cells): 1.1 µg/mL
Kd (NTSR1 ECL2 peptide [1]): 0.3 nM
binding affinity to peptide compared with h7C3-2 (in words) [2]: higher binding affinity
IC50 (A549): > 500 nM
IC50 (H1299): > 500 nM
IC50 (HA22T-Luc): > 500 nM
IC50 (HA22T): > 500 nM
IC50 (Mahlavu): > 500 nM
IC50 (PC-3): > 500 nM
mean fluorescence intensity (MFI) upon shifting cells from 4° C. to 37° C. (internalization) (A549 cells): decreased gradually
internalization efficiency [3]: internalized efficiently
immunohistochemistry staining (NTSR1): clustered and more intense
Kon (NTSR1 ECL2 peptide [4]): 441000 M⁻¹ s⁻¹
Koff (NTSR1 ECL2 peptide [5]): 0.000134 s⁻¹
